B1: GTF0974NT: N terminal-only truncated GTF0974 from Streptococcus salivarius 57.I, SEQ ID NO: 110, strain SG1290 (protein)
chain: INGKQYYVNSDGSVRKNFVFEQDGKSYYFDAETGALATKSQDEFSTEPIKATVDFSSGNQLYKNDDKSLDQLDTFITADAWYRPKSILKDGKTWTASTEADKRPLLMVWWPDKSTQVNYLNYMQNQGLGAGSFSTNSSQESLDQAAKAVQTKIEERIAREGNTNWLRTSIDQFIKTQPGWNSSTENSSYDHLQGGQLLFNNSKGDTGNRTSHANSDYRLLNRTPTNQTGTRKYFKDNSIGGLEFLLANDIDNSNPAVQAEQLNWLHFMMNIGSIMANDPTANFDGLRVDALDNVDADLLQIASDYFKAAYGVDKSEANAIKHLSYLEAWSANDPYYNKDTKGAQLPIDNALRNALTNLLMRDKNTRMQLGDMTAFINSSLNPRGANDKNGERMANYIFTRAHDTEAQTIIQRIIRDRINPNLFGYNFTRDEIKKAFEIYNEDIDKAHKTYASYNLPSVYALMLTNKDSVTRVYYGDLYREDGHYMAKKTPYFDAIDTLLRARIKYVAGGQDMEVKKVGNDGLLTSVRYGKGANNRTDLGTSETRTQGMGVIMTNNYDFRLGSNETVTMNMGRAHRNQLYRPLLLTTKDGIATYLNDSDVPKKLLKRTDWNGNLTFNANDVFGVENVQVSGYLGVWVPYGAKANQDARTQPSNRANSDGQVYKSSAALDSQVMYEAFSNFQAFADDQPELYMNRVLAKNTDLLKAWGITSVGLPPQYVSSKDGTFLDSTIDNGYAFDDRYDMALSQNNKYGSLEDLLNVLRALHKDGIQAIADWVPDQIYNLPGKEVVNATRVNGYGNHQVGYQIIDQAYVANTRTDGTDYQGKYGGAFLDELKAKYPSIFNRVQISNGKQLPTNEKITKWSAKYFNGTNILGRGINYVLRDDKTNQYFNTSANSQLLPTPLRDTGAITSTQVFQRRGQDVYFLRDNQAVKNEFVQDGNGNWYYFGGDGKMTKGAQNINNKDYYFFDNGIQLRNALRRASNGYTYYYGLDGAMVKNAFVDFDDKHKQVRAFTTQGTMVVGNLHWSGHHFYFDRETGIQAKDRVVRTDDGKLHYYVAETGDMGRNVFATDSSTGKRYYFDADGNTVTGSRVIDGKTYYFNQDGSVGTAYSNRADSIIFENGKARYITPAGEIGRSIFVYNPETKAWNYFDKEGNRVTGRQYIDGHLYYFKEDGSQAKGEIIEENGVKYYYEPESGILASGRYLQVGDDQWMYFKQDGSLAIGQVRADHGYLKYFDKNGIQVKGKTVVEDGKTYYYDAHSGALVTSSFAEIAPNQWSYFNTDGQALKGKWTINGKEYYFDENGIQYKGKAIKVGSRYKYYDENDGQPVTNRFAQIEPNVWAYFGADGYAVTGEQVINGQHLYFDQSGRQVKGAYVTVNGQRRYYDANTGEYVPGR
modifications: Streptococcus salivarius 57.I
B2: GTF4336T4: T4 C-terminal truncation of GTF4336, SEQ ID NO: 130, strain SG1318 (protein)
chain: INGKQYYVNSDGSVRKNFVFEQDGKSYYFDAETGALATKSQDEFSTEPIKATVDFSSGNQLYKNDDKSLDQLDTFITADAWYRPKSILKDGKTWTASTEADKRPLLMVWWPDKSTQVNYLNYMQNQGLGAGSFSTNSSQESLDQAAKAVQTKIEERIAREGNTNWLRTSIDQFIKTQPGWNSSTENSSYDHLQGGQLLFNNSKGDTGNRTSHANSDYRLLNRTPTNQTGTRKYFKDNSIGGLEFLLANDIDNSNPAVQAEQLNWLHFMMNIGSIMANDPTANFDGLRVDALDNVDADLLQIASDYFKAAYGVDKSEANAIKHLSYLEAWSANDPYYNKDTKGAQLPIDNALRNALTNLLMRDKNTRMQLGDMTAFINSSLNPRGANDKNGERMANYIFTRAHDTEAQTIIQRIIRDRINPNLFGYNFTRDEIKKAFEIYNEDIDKAHKTYASYNLPSVYALMLTNKDSVTRVYYGDLYREDGHYMAKKTPYFDAIDTLLRARIKYVAGGQDMEVKKVGNDGLLTSVRYGKGANNRTDLGTSETRTQGMGVIMTNNYDFRLGSNETVTMNMGRAHRNQLYRPLLLTTKDGIATYFNDSDVPKNLLKRTDWNGNLTFNANDVFGVENVQVSGYLGVWVPVGAKANQDARTQPSNRANSDGQVYKSSAALDSQVMYEAFSNFQAFADDQPELYMNRVLAKNTDLLKAWGVTSVGLPPQYVSSKDGTFLDSTIDNGYAFDDRYDMALSQNNKYGSLEDLLNVLRALHKDGIQAIADWVPDQIYNLPGKEVVNATRVNGYGYHQQGYQIVDQAYVANTRTDGTDYQGKYGGAFLDELKAKYPSIFNRVQISNGKQLPTNEKITKWSAKYFNGTNILGRGINYVLRDDKTNQYFNTSANSQLLPTPLRDTGAITSTQVFQRRGQDVYFLRDNQAVKNEFVQDGNGNWYYFGADGKMTKGAQTINKKDYYFFDNGIQLRNALRRANNGYTYYYGLDGAMVKNAFVDFDDKRK
modifications: T4 C-terminal truncation of GTF4336
B3: GTF4336T5: T5 C-terminal truncation of GTF4336, SEQ ID NO: 120, strain SG1319 (protein)
chain: INGKQYYVNSDGSVRKNFVFEQDGKSYYFDAETGALATKSQDEFSTEPIKATVDFSSGNQLYKNDDKSLDQLDTFITADAWYRPKSILKDGKTWTASTEADKRPLLMVWWPDKSTQVNYLNYMQNQGLGAGSFSTNSSQESLDQAAKAVQTKIEERIAREGNTNWLRTSIDQFIKTQPGWNSSTENSSYDHLQGGQLLFNNSKGDTGNRTSHANSDYRLLNRTPTNQTGTRKYFKDNSIGGLEFLLANDIDNSNPAVQAEQLNWLHFMMNIGSIMANDPTANFDGLRVDALDNVDADLLQIASDYFKAAYGVDKSEANAIKHLSYLEAWSANDPYYNKDTKGAQLPIDNALRNALTNLLMRDKNTRMQLGDMTAFINSSLNPRGANDKNGERMANYIFTRAHDTEAQTIIQRIIRDRINPNLFGYNFTRDEIKKAFEIYNEDIDKAHKTYASYNLPSVYALMLTNKDSVTRVYYGDLYREDGHYMAKKTPYFDAIDTLLRARIKYVAGGQDMEVKKVGNDGLLTSVRYGKGANNRTDLGTSETRTQGMGVIMTNNYDFRLGSNETVTMNMGRAHRNQLYRPLLLTTKDGIATYFNDSDVPKNLLKRTDWNGNLTFNANDVFGVENVQVSGYLGVWVPVGAKANQDARTQPSNRANSDGQVYKSSAALDSQVMYEAFSNFQAFADDQPELYMNRVLAKNTDLLKAWGVTSVGLPPQYVSSKDGTFLDSTIDNGYAFDDRYDMALSQNNKYGSLEDLLNVLRALHKDGIQAIADWVPDQIYNLPGKEVVNATRVNGYGYHQQGYQIVDQAYVANTRTDGTDYQGKYGGAFLDELKAKYPSIFNRVQISNGKQLPTNEKITKWSAKYFNGTNILGRGINYVLRDDKTNQYFNTSANSQLLPTPLRDTGAITSTQVFQRRGQDVYFLRDNQAVKNEFVQDGNGNWYYFGADGKMTKGAQTINKKDYYFFDNGIQLRNALRRANNGYTYYYGLDGAMVKNAFVDFDDKRKQ
modifications: T5 C-terminal truncation of GTF4336
B4: GTF0974T5: T5 C-terminal truncation of GTF0974 glucosyltransferase, SEQ ID NO: 118, strain SG1317 (protein)
chain: INGKQYYVNSDGSVRKNFVFEQDGKSYYFDAETGALATKSQDEFSTEPIKATVDFSSGNQLYKNDDKSLDQLDTFITADAWYRPKSILKDGKTWTASTEADKRPLLMVWWPDKSTQVNYLNYMQNQGLGAGSFSTNSSQESLDQAAKAVQTKIEERIAREGNTNWLRTSIDQFIKTQPGWNSSTENSSYDHLQGGQLLFNNSKGDTGNRTSHANSDYRLLNRTPTNQTGTRKYFKDNSIGGLEFLLANDIDNSNPAVQAEQLNWLHFMMNIGSIMANDPTANFDGLRVDALDNVDADLLQIASDYFKAAYGVDKSEANAIKHLSYLEAWSANDPYYNKDTKGAQLPIDNALRNALTNLLMRDKNTRMQLGDMTAFINSSLNPRGANDKNGERMANYIFTRAHDTEAQTIIQRIIRDRINPNLFGYNFTRDEIKKAFEIYNEDIDKAHKTYASYNLPSVYALMLTNKDSVTRVYYGDLYREDGHYMAKKTPYFDAIDTLLRARIKYVAGGQDMEVKKVGNDGLLTSVRYGKGANNRTDLGTSETRTQGMGVIMTNNYDFRLGSNETVTMNMGRAHRNQLYRPLLLTTKDGIATYLNDSDVPKKLLKRTDWNGNLTFNANDVFGVENVQVSGYLGVWVPYGAKANQDARTQPSNRANSDGQVYKSSAALDSQVMYEAFSNFQAFADDQPELYMNRVLAKNTDLLKAWGITSVGLPPQYVSSKDGTFLDSTIDNGYAFDDRYDMALSQNNKYGSLEDLLNVLRALHKDGIQAIADWVPDQIYNLPGKEVVNATRVNGYGNHQVGYQIIDQAYVANTRTDGTDYQGKYGGAFLDELKAKYPSIFNRVQISNGKQLPTNEKITKWSAKYFNGTNILGRGINYVLRDDKTNQYFNTSANSQLLPTPLRDTGAITSTQVFQRRGQDVYFLRDNQAVKNEFVQDGNGNWYYFGGDGKMTKGAQNINNKDYYFFDNGIQLRNALRRASNGYTYYYGLDGAMVKNAFVDFDDKHKQ
modifications: T5 C-terminal truncation of GTF0974

Test: GTF activity of strains (PAHBAH assay)
Assay type: biochemical
Details: enzyme expressed in B. subtilis host
Procedure: GTF activity of the strains was analyzed by PAHBAH assay in three separate experiments. Due to minor variations between the expeirments, Table 2 lists the activity of the truncated enzymes in the B. subtilis host along with the experiment in which the activity was measured. Most of the T1, T2, and T6 truncations decreased the activity of the enzymes, whereas the T4 and T5 C-terminal truncations retained similar activity relative to the respective N terminal-only truncations (NT). […] To identify specific amino acid residues within the catalytic domain that may be involved in producing the soluble α-glucan fiber, we analyzed the crystal structures (PDB Identifiers: 3AIB, 3AIC, and 3HZ3) of the catalytic domains of three glucosyltransferases to identify residues within 8 Angstroms of the bound ligand. 57 residues met that criterion. A motif was generated based on the corresponding 57 amino acids in GTF0459 and each of the identified homologs. The motif was then used to generate a consensus sequence to capture the variability in the catalytic domains of GTF0459 and the identified homologs. The consensus sequence is provided as SEQ ID NO: 153.

Molecule	GTF activity of strains: Acitivity (Experiment Number 1) [U/mL]	GTF activity of strains: Acitivity (Experiment Number 2) [U/mL]	GTF activity of strains: Acitivity (Experiment Number 3) [U/mL]
B1	43.7	53	36.4
B2	–	46.4	–
B3	–	43.6	–
B4	–	43.5	37.7

— patent US20180049457A1, “ENZYMATIC SYNTHESIS OF SOLUBLE GLUCAN FIBER” (E I DU PONT DE NEMOURS AND COMPANY, priority 2014, published 2018)
